Measurements reported in patent US20220298216A1 (SYRACUSE UNIVERSITY, published 2022).
Non-standard residues stand in square brackets, D forms with d. No end group written: not given here. NMeF = CN[C@@H](Cc1ccccc1)C(=O)O; NMeL = CN[C@@H](CC(C)C)C(=O)O; NMeS = CN[C@@H](CO)C(=O)O; Dap = NC[C@H](N)C(=O)O; Sar = CNCC(=O)O

T1: human ghrelin O-acyltransferase (hGOAT) (human, UniProt Q96T53 1-435, limits assumed)
T1 sequence (looked up): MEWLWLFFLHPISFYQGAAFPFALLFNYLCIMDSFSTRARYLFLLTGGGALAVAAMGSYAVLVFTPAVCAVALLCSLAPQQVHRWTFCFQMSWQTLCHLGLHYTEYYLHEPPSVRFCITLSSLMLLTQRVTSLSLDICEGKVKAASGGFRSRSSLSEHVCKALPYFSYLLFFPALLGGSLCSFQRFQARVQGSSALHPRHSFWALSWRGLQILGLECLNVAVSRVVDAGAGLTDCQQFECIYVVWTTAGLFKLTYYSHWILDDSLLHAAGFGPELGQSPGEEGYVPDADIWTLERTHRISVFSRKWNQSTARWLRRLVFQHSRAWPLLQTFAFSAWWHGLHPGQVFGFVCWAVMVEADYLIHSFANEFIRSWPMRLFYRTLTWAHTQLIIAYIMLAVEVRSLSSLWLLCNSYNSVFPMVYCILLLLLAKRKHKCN


Tests used:
GOAT (human) = GOAT (human) (UniProt Q96T53); test: GOAT inhibition assay
[1] = biological target: T1, human ghrelin O-acyltransferase (hGOAT); test: cell-based or functional assay
[2] = biological target: ghrelin receptor (GHS-R1a) (Homo sapiens (Human)) (UniProt Q92847); test: competition binding assay on the ghrelin receptor, IC50
Sequence of ghrelin receptor (GHS-R1a) (Homo sapiens (Human)) (Q92847 whole entry, form in doubt): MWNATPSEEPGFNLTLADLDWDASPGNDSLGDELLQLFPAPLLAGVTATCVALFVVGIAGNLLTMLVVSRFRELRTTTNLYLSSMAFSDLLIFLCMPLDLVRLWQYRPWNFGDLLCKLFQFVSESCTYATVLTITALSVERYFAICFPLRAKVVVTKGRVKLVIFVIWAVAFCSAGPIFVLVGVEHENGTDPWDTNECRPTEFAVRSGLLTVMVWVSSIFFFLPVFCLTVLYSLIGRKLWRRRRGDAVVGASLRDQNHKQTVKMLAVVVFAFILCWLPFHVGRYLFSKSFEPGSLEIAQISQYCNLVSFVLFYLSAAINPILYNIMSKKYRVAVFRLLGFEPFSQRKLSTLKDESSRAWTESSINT

Molecule	IC50 (GOAT (human)) [nM]	IC50 (µM), inhibitor potency against hGOAT [1] [µM]	also measured
Ac-SDapFL	> 100000		
GSDap	> 100000		
GSDapF	1200		
GS[Dap]FLS	74		
SDapFL	> 100000		
SarSDapN·MeF (peptide)		1.5	
ghrelin-derived peptide with a sarcosine substitution at the G1 position			fold loss in binding affinity (IC50) against the unsubstituted peptide [2]: > 25 fold
GS[Dap]F[NMeL] [GSDapFN·MeL]		0.062	
[Sar]S[Dap][NMeF][NMeL] [SarSDapN·MeFN·MeL]		6	
GS[Dap][NMeF]L [GSDapN·MeFL]		0.097	
G[NMeS][Dap]FL [GN·MeSDapFL]		> 100	
[Sar]S[Dap]FL [SarSDapFL]		0.088	
GS[Dap]FL [GSDapFL]		0.14	
